From US10889629B2, “Transfected T-cells and T-cell receptors for use in immunotherapy against cancers” (IMMATICS BIOTECHNOLOGIES GMBH, priority 2016, dated 2021)
“Also recorded” adds a separate entry of the source.

Experiments:
[1] = system: HLA-A*0201-positive PBMCs and HLA-A*0201/Kb transgenic mice; settings: in vitro from PBMCs and in HLA-A*0201/Kb transgenic mice; cited from earlier work
[2] = target: HLA-A*0201 molecule (Homo sapiens, UniProt P04439, D140Y/D185E/D98H/E176V/E277Q/G131W/G231S/I119V/I121R/I166T/I218V/L300P/L318F/N151K/N90K/P208A/P217A/Q86G/Q94H/R138H/R169H/T345S); settings: cited from earlier work
[3] = system: MHC/NYESO1-001 tetramer; experiment: Tetramer staining of TCR-RNA-electroporated CD8+ T-cells, MHC/NYESO1-001 control tetramer; assay type: binding, human
Source text: (§1) FIG. 8 show MHC/MAG-003 tetramer or MHC/NYESO1-001 tetramer staining of CD8+ T-cells electroporated with alpha and beta chain RNA of TCRs R7P1 D5, R20P1H7 and R10P2G12 (Table 2), respectively. CD8+ T-cells electroporated with RNA of 1G4 TCR that specifically binds to MHC/NYESO1-001 complex and mock electroporated CD8+ T-cells served as controls.
(§2) T-cell activation was further confirmed using a tetramer staining technique to detect MHC/MAG-003-binding activated cytotoxic T-cells. As shown in FIG. 8 and Table 11, a higher percentage of TCR-expressing CD8+ T-cells were stained positive fluorescent-labeled MHC/MAG-003 tetramer than that with MHC/NYESO1-001 control tetramer or mock control. […] The alpha and beta chains of TCR 1G4 are shown in SEQ ID NO:89 and 90, respectively: […]

[4] = target: MHC/MAG-003 tetramer (Homo sapiens, UniProt P04439+P43358, D140Y/D185E/D98H/E176V/E277Q/G131W/G231S/I119V/I121R/I166T/I218V/N151K/N90K/P208A/P217A/Q86G/Q94H/R138H/R169H); experiment: Tetramer staining of TCR-RNA-electroporated CD8+ T-cells, MHC/MAG-003 tetramer; assay type: binding
Source text: as §1, §2

[5] = system: A-375 (human melanoma cell line, positive for HLA-A2 and MAG-003 expression); experiment: IFNγ release, TCR-expressing CD8+ T-cells co-incubated with A-375; assay type: cell-based
Experimental: (§3) To determine efficacy of T-cells expressing TCRs described herein, primary CD8+ T-cells electroporated with RNA of the TCRs R7P1 D5, R20P1H7 and R10P2G12 were co-incubated with different human cancer cell lines, e.g., A-375 (human melanoma cell line, which is positive for HLA-A2 and MAG-003 expression), T98G (human glioblastoma cell line, which is HLA-A2-positive and MAG-003-negative), and SK-BR-3 (human breast cancer cell line, which is HLA-A2-negative and MAG-003-negative), followed by IFNγ release assay.
(§4) TCRs of interest were expressed in human T cells via RNA electroporation and the T cells were assessed for IFN-γ release after co-culture with different target cells, such as T2 cells loaded with different peptides as well as tumor cell lines and primary cells from healthy tissues. T-cell activation data are shown in absolute IFN-γ levels or a normalized way as indicated below.
(§5) Efficacy of CD8+ T cells expressing TCRs R7P1 D5, R10P2G12 and R20P1H7 was determined by T cell activation studies (IFN-γ release) using different tumor cell lines as target cells. The characterization of the safety profile of TCRs of interest was approached by testing the potential activation of TCR-expressing T cells upon co-culture with isolated primary cell types from healthy tissues and induced pluripotent stem cell (iPSC)-derived cell types from HLA-A*02-positive donors (Table 13). Cell types were selected in a manner to cover most of the critical organs like e.g. brain, heart and liver and different cell types as epithelium, endothelium or smooth muscle. Tumor cell lines were analyzed side-by-side as positive and negative controls.
(§6) Normalization Method for IFNγ Release: Meannorm(TCRoi;co)=[mean(TCRoi;co)−mean(TCRoi;effector only)]−[mean(mock;co)−mean(mock;effector only)]

[6] = system: T98G (human glioblastoma cell line, HLA-A2-positive and MAG-003-negative); experiment: IFNγ release, TCR-expressing CD8+ T-cells co-incubated with T98G; assay type: cell-based; settings: Example 4, T98G, compared with effector cell only control
Experimental: as §3

[7] = system: human non-small cell cancer cell line, H1755 (NCI-H1755); experiment: IFNγ release, TCR-expressing CD8+ T-cells co-incubated with H1755; assay type: cell-based; settings: Example 6, NCI-H1755 expressing HLA-A*02 and MAGEA4
Experimental: as §3, §4, §5, §6

[8] = target: T1, MHC/MAG-003 complex (Homo sapiens, UniProt P04439+P43358, D140Y/D185E/D98H/E176V/E277Q/G131W/G231S/I119V/I121R/I166T/I218V/L300P/L318F/N151K/N90K/P208A/P217A/Q86G/Q94H/R138H/R169H/T345S); experiment: IFN-γ release assay: TCR-RNA-electroporated CD8+ T-cells co-incubated with peptide-loaded target cells; assay type: cell-based
T1 construct: endogenous in cells
Experimental: In another aspect, to obtain T-cells expressing TCRs of the present description, TCR RNAs were synthesized by techniques described in the art, e.g., in vitro transcription systems. The in vitro-synthesized TCR RNAs were then introduced into primary CD8+ T-cells obtained from healthy donors by electroporation to re-express tumor specific TCR-alpha and/or TCR-beta chains.
To determine specificity and affinity of TCRs, the transformed CD8+ T-cells were co-incubated with MAG-003-loaded target cells or with target cells loaded with homologous but unrelated peptide RABGAP1L-001 (SEQ ID NO:91), AXIN1-001 (SEQ ID NO:92), ANO5-001 (SEQ ID NO:93), TPX2-001 (SEQ ID NO:94), SYNE3-001 (SEQ ID NO:95), MIA3-001 (SEQ ID NO:96), HERC4-001 (SEQ ID NO:97), PSME2-001 (SEQ ID NO:98), HEATR5A-001 (SEQ ID NO:99) or CNOT1-003 (SEQ ID NO:100) or control peptide NYESO1-001 (SEQ ID NO:101), followed by IFN-γ release assay. Unloaded target cells and CD8+ T-cells alone served as controls. IFN-γ secretion from CD8+ T-cells is indicative of T-cell activation with cytotoxic activity.
As shown in FIGS. 5-7 all primary CD8+ T-cells transformed with TCRs of the present disclosure, after co-incubation with MAG-003-loaded target cells, released much higher levels of IFN-γ than that stimulated by unrelated peptide-loaded target cells, and the controls.

[9] = system: SK-BR-3 (human breast cancer cell line, HLA-A2-negative and MAG-003-negative); experiment: IFNγ release, TCR-expressing CD8+ T-cells co-incubated with SK-BR-3; assay type: cell-based; settings: Example 4, SK-BR-3, compared with effector cell only control
Experimental: as §3

[10] = system: HLA-A*02 positive cell types from healthy tissues; experiment: Safety: IFN-γ release upon co-culture with primary and iPSC-derived cell types from healthy tissues; assay type: cell-based, human; settings: E:T ratio 1:1, 20 h, ELISA, normalized
Source text: FIG. 13 T cells transfected with RNA coding for TCR R7P1 D5, R10P2G12, R20P1H7, mock or the control TCR 1G4 (SEQ ID NO:X) were co-cultured with different primary human healthy tissue cells (see table 13 for abbreviations), the target negative tumor cell line MCF-7 and the MAGEA4- and NY-ESO1-positive cell lines A-375 and NCI-H1755. TCRs R7P1D5, R10P2G12, R20P1H7 and 1G4 expression in T cells was achieved by electroporation using an RNA vector. […] E:T ratio 1:1, 20,000 cells each, mean of IFN-γ release after 20 h from replicates is shown as measured by ELISA. Error bars indicate standard deviations. Results were normalized by subtraction of IFN-γ release from TCR-transfected T cells only and IFN-γ release due to co-culture of Target cells and T cells not expressing TCR of interest.
as §4, §5, §6
The respective CVnorm was calculated: CVnorm(TCRoi;co)=[CV(TCRoi;co)^2+CV(TCRoi;effector only)^2+CV(mock;co)^2+CV(mock;effector only)^2]^[½] TCRoi=effector cells expressing TCR of interest Mock=effector cells without exogenous TCR expression Co=effector cells co-cultured with target cells Effector only=effector cells not co-cultured Mean(norm)=mean IFNγ release (normalized) CV(norm)=coefficient of variation (normalized) Results: […]

[11] = system: NYESO1 expressing HLA-A*02 positive tumor cell lines; experiment: IFN-γ release of 1G4-expressing CD8+ T cells with NYESO1 expressing tumor cell lines; assay type: cell-based, human; settings: Example 6
Experimental: as §4, §5

[12] = system: MHC/NYESO1-001 complex; experiment: Activation of 1G4-transformed CD8+ T-cells by NYESO1-001-loaded target cells; assay type: cell-based, human

For “KVLEHVVRV (listed as Homo sapiens) [MAG-003]”, the “induction of peptide-specific CTLs” value [1] is given as “elicits peptide-specific CTLs” and the “binding affinity and stability towards HLA-A*0201 molecule” value [2] is given as “potent binding affinity and stability”.

In the case of “YLLEHVVRL (listed as Homo sapiens) [p286-1Y2L9L]”, the “induction of peptide-specific CTLs” value [1] is listed as “showed the capability to induce specific CTLs” and the “binding affinity and stability towards HLA-A*0201 molecule” value [2] is listed as “potent binding affinity and stability”.

B1: R20P1H7: TCR, alpha chain SEQ ID NO:39 and beta chain SEQ ID NO:47, MAG-003-specific (protein, listed as Homo sapiens)
alpha: MEKMLECAFIVLWLQLGWLSGEDQVTQSPEALRLQEGESSSLNCSYTVSGLRGLFWYRQDPGKGPEFLFTLYSAGEEKEKERLKATLTKKESFLHITAPKPEDSATYLCAVQGENSGYSTLTFGKGTMLLVSPDIQNPDPAVYQLRDSKSSDKSVCLFTDFDSQTNVSQSKDSDVYITDKTVLDMRSMDFKSNSAVAWSNKSDFACANAFNNSIIPEDTFFPSPESSCDVKLVEKSFETDTNLNFQNLSVIGFRILLLKVAGFNLLMTLRLWSS
beta: MGPQLLGYVVLCLLGAGPLEAQVTQNPRYLITVTGKKLTVTCSQNMNHEYMSWYRQDPGLGLRQIYYSMNVEVTDKGDVPEGYKVSRKEKRNFPLILESPSPNQTSLYFCASSLGPGLAAYNEQFFGPGTRLTVLEDLKNVFPPEVAVFEPSEAEISHTQKATLVCLATGFYPDHVELSWWVNGKEVHSGVSTDPQPLKEQPALNDSRYCLSSRLRVSATFWQNPRNHFRCQVQFYGLSENDEWTQDRAKPVTQIVSAEAWGRADCGFTSESYQQGVLSATILYEILLGKATLYAVLVSALVLMAMVKRKDSRG
For B1, the “% NYESO1-001 TET-positive primary CD8+ T-cells” value [3] was 0.87%, the “% MAG-003 TET-positive primary CD8+ T-cells” value [4] was 5.73% and the IFNγ release ([5]; Example 4, A-375, HLA-A2-positive and MAG-003-positive) was “IFNγ release was observed”. The “T-cell activation (IFN-γ release)” value ([5]; Example 6, A-375 expressing HLA-A*02 and MAGEA4) was “activity”, the IFNγ release [6] was “basal levels of IFNγ release” and the “T-cell activation (IFN-γ release)” value [7] was “activity”. For the same molecule, the “IFNγ” value ([8]; CD8+ T-cells electroporated with TCR RNA, co-incubation with MAG-003-loaded target cells) was 200 to 900 pg/mL, the EC50 ([8]; target peptide (MAG-003) titration, IFN-γ release) was roughly 10 nM and the IFNγ release [9] was “basal levels of IFNγ release”. The “T-cell activation (IFN-γ release) by healthy tissue cells” value [10] was “no activation was observed; also recorded: did not lead to significant TCR-mediated recognition and T-cell activation”.

B2: 1G4: control TCR known to bind specifically to MHC/NYESO1-001 complex; alpha and beta chains SEQ ID NO:89 and 90 (protein, listed as Homo sapiens)
alpha: METLLGLLILWLQLQWVSSKQEVTQIPAALSVPEGENLVLNCSFTDSAIYNLQWFRQDPGKGLTSLLLIQSSQREQTSGRLNASLDKSSGRSTLYIAASQPGDSATYLCAVRPTSGGSYIPTFGRGTSLIVHPYIQNPDPAVYQLRDSKSSDKSVCLFTDFDSQTNVSQSKDSDVYITDKTVLDMRSMDFKSNSAVAWSNKSDFACANAFNNSIIPEDTFFPSPESSCDVKLVEKSFETDTNLNFQNLSVIGFRILLLKVAGFNLLMTLRLWSS
beta: MSIGLLCCAALSLLWAGPVNAGVTQTPKFQVLKTGQSMTLQCAQDMNHEYMSWYRQDPGMGLRLIHYSVGAGITDQGEVPNGYNVSRSTTEDFPLRLLSAAPSQTSVYFCASSYVGNTGELFFGEGSRLTVLEDLKNVFPPEVAVFEPSEAEISHTQKATLVCLATGFYPDHVELSWWVNGKEVHSGVSTDPQPLKEQPALNDSRYCLSSRLRVSATFWQNPRNHFRCQVQFYGLSENDEWTQDRAKPVTQIVSAEAWGRADCGFTSESYQQGVLSATILYEILLGKATLYAVLVSALVLMAMVKRKDSRG
For B2, the “T-cell reactivity (IFN-γ release)” value [11] was “reactive”, the T-cell activation [12] was “readily activated” and the “T-cell activation (IFN-γ release) by healthy tissue cells” value [10] was “not towards the indicated panel of healthy tissue cells”.
